The values below come from publication PMC6640674.

The assay deals with BPSL1626 (Burkholderia pseudomallei strain K96423) (UniProt Q63UH6). The assay can be described thus: crystal structure.

Usually stoichiometry N stands for a count of units in the complex or per binding partner. On to “BPSL1626 (from UniProt Q63UH6 26-176) (natural protein)”, for which the stoichiometry N came out at 2.
